Experimental data from article PMC2887978.

Target: MBD2b (UniProt Q9UBB5 150-411)
Assay: EMSA

Chain of MBD2b (Q9UBB5 150-411): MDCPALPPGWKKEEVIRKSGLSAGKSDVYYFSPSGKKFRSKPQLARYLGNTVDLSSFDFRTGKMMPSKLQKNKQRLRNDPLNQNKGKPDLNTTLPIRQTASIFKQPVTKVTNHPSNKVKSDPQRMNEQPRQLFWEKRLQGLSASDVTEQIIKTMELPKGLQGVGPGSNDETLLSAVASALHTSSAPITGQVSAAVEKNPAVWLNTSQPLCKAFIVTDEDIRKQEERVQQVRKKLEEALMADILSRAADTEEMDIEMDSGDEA

B1: C76 (dsDNA)
DNA 1: CCTCACCATCTCAACCAATATTATATTACGCGTATATCGCGTATTTCGCGTTATAATATTGAGGGAGAAGTGGTGA
DNA 2: TCACCACTTCTCCCTCAATATTATAACGCGAAATACGCGATATACGCGTAATATAATATTGGTTGAGATGGTGAGG
binding result: no binding
